Measurements as given in patent publication US6458355 (Genentech, dated 2002).

Target: T1, recombinant human IL-8, (ser-IL-8)72 (human, UniProt P10145 28-99)
T1 construct: mature; also called human wild type IL-8; wt IL-8
T1 sequence (looked up): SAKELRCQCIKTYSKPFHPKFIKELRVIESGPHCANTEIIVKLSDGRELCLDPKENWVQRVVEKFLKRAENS
Assay: competition of 125I-IL-8 binding to human neutrophils

fold reduction in binding affinity (against the chimeric F(ab)): 5.5 fold
B1: humanized 6G425 F(ab)-1 (Fab, V domains shown)
VH: EVQLVESGGGLVQPGGSLRLSCAASGYSFSSHYMHWVRQAPGKGLEWVGYIDPSNGETTYNQKFKGRFTISRDNSKNTLYLQMNSLRAEDTAVYYCARGDYRYNGDWFFDVWGQGT
VL: DIQMTQSPSSLSASVGDRVTITCRSSQSLVHGIGNTYLHWYQQKPGKAPKLLIYKVSNRFSGVPSRFSGSGSGTDFTLTISSLQPEDFATYYCSQSTHVPLTFGQGTKVEIKR
notes: Fab with human kappa subgroup I light and human IgG1 subgroup III heavy chain (pEMX1); CDR swap; also called version 1; V1
